Patent publication US20240336673A1 (WEST VIRGINIA UNIVERSITY BOARD OF GOVERNERS ON BEHALF OF …, published 2024)

How the values were obtained:
[1] = molecular target: T1, FliC protein at the surface of P. aeruginosa PAO1 (Pseudomonas aeruginosa PAO1, UniProt P72151 1-488); assay: direct ELISA of hybridoma supernatant on whole P. aeruginosa PAO1
T1 construct: whole, on cells; Native protein on whole bacteria or in lysates; also called P. aeruginosa PAO1 flagellin; type b flagellin
T1 sequence: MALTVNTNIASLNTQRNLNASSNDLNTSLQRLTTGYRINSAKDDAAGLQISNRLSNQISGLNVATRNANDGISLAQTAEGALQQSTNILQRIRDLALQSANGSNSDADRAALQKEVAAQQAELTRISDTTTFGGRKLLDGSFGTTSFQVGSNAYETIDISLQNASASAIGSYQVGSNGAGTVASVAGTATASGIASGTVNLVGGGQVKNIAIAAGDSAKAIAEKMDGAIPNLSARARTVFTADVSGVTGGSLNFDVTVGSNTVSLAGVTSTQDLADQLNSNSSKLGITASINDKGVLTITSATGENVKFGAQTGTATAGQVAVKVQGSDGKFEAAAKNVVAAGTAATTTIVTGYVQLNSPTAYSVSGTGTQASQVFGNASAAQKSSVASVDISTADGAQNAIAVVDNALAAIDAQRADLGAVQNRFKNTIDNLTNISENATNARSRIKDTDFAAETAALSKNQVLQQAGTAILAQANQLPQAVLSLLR

[2] = molecular target: T2, purified recombinant FliC from P. aeruginosa (polyHis-tag FliC protein, gene from P. aeruginosa PAO1) (Pseudomonas aeruginosa PAO1, UniProt P72151 1-488); assay: direct ELISA of hybridoma supernatant on coated recombinant FliC
T2 construct: also called P. aeruginosa flagellin; purified FliC protein from P. aeruginosa; not shown: polyhistidine tag
T2 sequence: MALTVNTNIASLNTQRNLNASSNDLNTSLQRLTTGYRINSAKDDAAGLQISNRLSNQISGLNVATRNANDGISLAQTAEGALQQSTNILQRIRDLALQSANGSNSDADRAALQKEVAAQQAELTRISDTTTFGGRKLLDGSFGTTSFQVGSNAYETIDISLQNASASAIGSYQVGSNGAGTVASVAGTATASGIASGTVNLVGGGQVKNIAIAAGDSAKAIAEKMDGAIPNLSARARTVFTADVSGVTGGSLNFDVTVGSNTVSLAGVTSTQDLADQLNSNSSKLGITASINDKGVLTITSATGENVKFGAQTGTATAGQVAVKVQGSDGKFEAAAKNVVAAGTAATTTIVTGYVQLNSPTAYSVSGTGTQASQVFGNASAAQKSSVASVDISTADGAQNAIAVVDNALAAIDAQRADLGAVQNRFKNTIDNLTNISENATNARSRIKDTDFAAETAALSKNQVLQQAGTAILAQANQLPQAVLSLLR

B1: WVDC-2109 (antibody, V domains shown)
VH: EVQLQESGAELVKPGASVKLSCKASGYTFTSYWMHWVKQRPGQGLEWIGMIRPNSGSTNYNEKFKSKATLTVDKSSSTAYMQLSSPTSEDSAVYYCARRGYGSSYGYYAMDYWGQGTSVTVSS
VL: DIVVTQTTSSLSASLGDRVTISCRASQDISNYLNWYQQKPDGTVKLLINYTSRLNSGVPSRFSGSGSGTDYSLTISNLEQEDIATYFCQQGNTLPWTFGGGTKLE
notes: also called anti-FliC mAb; mAb WVDC-2109
[1]
  binding result: binds
[2]
  binding result: binds
